The results in this text go back to patent US20240084017A1 (ASCENDO BIOTECHNOLOGY, published 2024).

Assay [1] has as its target T1, human Mac-1 (integrin αMβ2, CD11b/CD18) (human, UniProt P11215 17-1152; P05107 23-769). In words: flow cytometry, HEK293/Mac-1 cells (clone 1-4), PBS (Mock). As for the experimental part: (§1) The HEK293/Mac-1 cells (clone1-4) were counted and washed twice with staining buffer (PBS containing 1% FBS, and 0.1% sodium azide). Cells were adjusted at a concentration of 1×10⁵ cells/ml in staining buffer and treated with/without 0.25 mM MnCl₂ (Sigma). Cells were treated with anti-Mac-1 antibodies and fluorescent conjugated anti-human IgG4 antibodies and incubated for 15 mins. After washing with the staining buffer, the cells were analyzed by flow cytometry. In some examples, these cells were treated with the antibodies (ICRF44, KIM127, m24, or isotype control) in the presence or absence 10 μg/ml anti-Mac-1 antibodies. The cells were then incubated at 37° C. for 30 min. After washing with the staining buffer, the cells were analyzed by flow cytometry.
(§2) TABLE II The anti-Mac-1 antibodies selectively bind to different statuses of human Mac-1. HEK293/Mac-1 cells (clone1-4) were incubated in PBS (Mock), or PBS/MnCl₂ (Mn²⁺). Binding of isotype control IgG, the CD11b specific mAb (ICRF44), the CD11b activation-sensing mAb (CBRM1/5), or the screened anti-Mac-1 antibody was detected using flow cytometry.

Assay [2] concerns the target T1, human Mac-1 (integrin αMβ2, CD11b/CD18). In words: flow cytometry, HEK293/Mac-1 cells (clone 1-4), PBS/MnCl2 (Mn2+). How it is done: as §1, §2
For orientation: In flow cytometry, cells or beads pass a laser one at a time.

Assay [3] shares this target. In words: flow cytometry, HEK293/Mac-1 cells; MFI in PBS over MFI in PBS/MnCl2. How it is done:
as §1, §2

Assay [4] shares this target. In words: flow cytometry, HEK293/Mac-1 cells, PBS (Mock), 10 µg/ml of this antibody; binding of reporter mAb m24 read. How it is done: as §1
(§3) TABLE III The anti-Mac-1 antibodies can serve as agonist to enhance the conformational change of Mac-1. HEK293/Mac-1 cells (clone1-4) were incubated with 10 μg/ml anti-Mac-1 antibodies under the PBS (Mock) condition. Binding of KIM127 or m24 was detected using flow cytometry.

Assay [5] shares this target. Kind of assay: flow cytometry, HEK293/Mac-1 cells, PBS (Mock), 10 µg/ml of this antibody; binding of reporter mAb KIM127 read. How it is done: as §1, §3
For assay [6] the target is unchanged. Kind of assay: flow cytometry, HEK293/Mac-1 cells, PBS/MnCl2 (Mn2+), 10 µg/ml of this antibody; binding of reporter mAb m24 read. As for the experimental part:
as §1
(§4) TABLE IV The anti-Mac-1 antibody can serve as an antagonist to reduce the conformational change of Mac-1. HEK293/Mac-1 cells (clone1-4) were incubated with 10 μg/ml anti-Mac-1 antibodies under the PBS/MnCl₂ (Mn²⁺) condition. Binding of KIM127 or m24 was detected using flow cytometry.

The target is the same in assay [7]. In words: flow cytometry, HEK293/Mac-1 cells, PBS/MnCl2 (Mn2+), 10 µg/ml of this antibody; binding of reporter mAb KIM127 read. As for the experimental part: as §1, §4
For another assay, the target named is T2, mouse Mac-1 (mouse, UniProt P05555 17-1153; P11835 24-771).
T2 construct: whole, on cells; also called Raw264.7
T2 sequence (P05555 17-1153, chain 1 of 2): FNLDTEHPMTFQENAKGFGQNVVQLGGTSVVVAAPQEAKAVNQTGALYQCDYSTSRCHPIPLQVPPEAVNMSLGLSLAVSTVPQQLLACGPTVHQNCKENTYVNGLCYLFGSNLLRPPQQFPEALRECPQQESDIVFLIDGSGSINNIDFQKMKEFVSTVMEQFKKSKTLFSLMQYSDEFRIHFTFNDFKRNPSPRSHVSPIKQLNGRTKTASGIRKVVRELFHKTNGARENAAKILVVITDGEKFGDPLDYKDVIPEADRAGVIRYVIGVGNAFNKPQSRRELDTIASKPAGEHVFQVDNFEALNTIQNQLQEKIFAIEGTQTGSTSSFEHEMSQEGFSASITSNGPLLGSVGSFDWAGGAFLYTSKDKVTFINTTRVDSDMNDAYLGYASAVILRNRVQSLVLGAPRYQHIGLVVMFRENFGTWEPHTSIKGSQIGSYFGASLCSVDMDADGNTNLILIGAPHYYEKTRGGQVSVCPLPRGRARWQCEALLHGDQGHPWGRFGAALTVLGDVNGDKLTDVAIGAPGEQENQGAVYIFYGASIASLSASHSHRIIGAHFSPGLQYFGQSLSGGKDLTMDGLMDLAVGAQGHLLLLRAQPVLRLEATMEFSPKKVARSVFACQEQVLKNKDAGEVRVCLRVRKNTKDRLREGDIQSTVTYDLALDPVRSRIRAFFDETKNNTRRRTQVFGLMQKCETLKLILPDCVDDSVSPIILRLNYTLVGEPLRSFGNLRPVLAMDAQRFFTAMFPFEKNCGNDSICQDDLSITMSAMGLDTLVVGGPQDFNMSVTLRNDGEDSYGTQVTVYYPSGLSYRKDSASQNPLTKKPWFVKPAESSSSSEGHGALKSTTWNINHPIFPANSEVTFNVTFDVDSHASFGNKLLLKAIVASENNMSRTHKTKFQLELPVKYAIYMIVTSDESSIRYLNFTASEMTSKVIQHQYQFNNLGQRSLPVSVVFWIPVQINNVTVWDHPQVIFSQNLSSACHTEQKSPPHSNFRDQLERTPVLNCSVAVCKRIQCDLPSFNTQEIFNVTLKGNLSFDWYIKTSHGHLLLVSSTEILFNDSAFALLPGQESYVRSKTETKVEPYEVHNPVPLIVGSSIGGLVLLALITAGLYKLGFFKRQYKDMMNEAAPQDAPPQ
T2 sequence (P11835 24-771, chain 2 of 2): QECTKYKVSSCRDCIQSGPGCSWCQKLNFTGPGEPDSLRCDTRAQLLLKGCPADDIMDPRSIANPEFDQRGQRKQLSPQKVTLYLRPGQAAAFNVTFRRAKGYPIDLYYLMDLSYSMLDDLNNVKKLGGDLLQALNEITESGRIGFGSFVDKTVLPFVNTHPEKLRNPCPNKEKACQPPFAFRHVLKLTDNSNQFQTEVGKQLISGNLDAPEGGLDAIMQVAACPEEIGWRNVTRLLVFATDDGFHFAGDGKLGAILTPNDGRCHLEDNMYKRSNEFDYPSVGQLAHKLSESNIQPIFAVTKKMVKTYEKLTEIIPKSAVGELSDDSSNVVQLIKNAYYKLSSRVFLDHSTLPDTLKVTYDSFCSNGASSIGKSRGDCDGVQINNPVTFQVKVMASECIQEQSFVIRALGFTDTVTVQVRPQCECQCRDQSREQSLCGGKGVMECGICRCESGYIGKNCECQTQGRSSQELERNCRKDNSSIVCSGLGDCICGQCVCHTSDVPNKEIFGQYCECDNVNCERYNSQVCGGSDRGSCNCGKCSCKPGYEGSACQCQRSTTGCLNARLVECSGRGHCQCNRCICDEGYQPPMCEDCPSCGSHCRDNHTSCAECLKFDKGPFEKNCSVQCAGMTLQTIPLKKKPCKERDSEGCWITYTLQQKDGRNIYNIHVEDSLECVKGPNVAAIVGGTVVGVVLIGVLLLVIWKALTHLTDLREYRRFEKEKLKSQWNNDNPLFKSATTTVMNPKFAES
In words: flow cytometry, Raw 264.7 cells.

B1: anti-Mac-1 antibody clone DF4-25 (antibody, human IgG4, V domains shown)
VH: EVQLVESGGGLVQPGGSLRLSCAASGFTFKDYWLSWVRQAPGKGLEWVSIINYGGSETYYADSVKGRFTISRDNSKNTLYLQMNSLRAEDTAVYYCARTQTSYVMDYWGQGTLVTVSS
VL: DIQMTQSPSSLSASVGDRVTITCRASQSVRSGLNWYQQKPGKAPKLLIYAASSLQSGVPRRFSGSGSGTDFTLTISSLQPEDFATYYCMQSHSWPLTFGQGTKVEIK
In the case of B1, the “Mock MFI” value in assay [1] turned out to be 35700 MFI. In assay [2], the “Mn^2+ MFI” value worked out at 30500 MFI. Further, the “Mock/Mn^2+ Ratio” value in assay [3] stood at 1.17. Also, the results for the “m24 (Expression relative to IgG4)” value in assay [4] and in assay [6] were 24 relative to IgG4 and 4.34 relative to IgG4, respectively. Further, the results for the “KIM127 (Expression relative to IgG4)” value in assay [5] and in assay [7] were 2.23 relative to IgG4 and 1.75 relative to IgG4, respectively.

B2: anti-Mac-1 antibody clone m2396 (antibody, human IgG4, V domains shown)
VH: QVQLQESGPGLVKPSETLSLTCTVSGFSLTSNSISWVRQPPGKGLEWMGAIWSGGGTDYNPSLKSRLTISRDTSKSQVFLKMSSLTAADTAIYFCTRGGYPYYFDYWGQGVLVTVSS
VL: DIVMTQSPDSLAVSLGERVTINCKSSQSLLYSENQENYLAWYQQKPGQSPKLLIYWASTRQSGVPDRFSGSGSGTDFTLTISSVQAEDLAIYYCQQYYDTPLTFGGGTKLEIK
Regarding B2, in the assay with mouse Mac-1, the binding result is given as “binds”. Also, the “Mock MFI” value in assay [1] came out at 108000 MFI. Besides, the “Mn^2+ MFI” value in assay [2] is 107000 MFI. Besides, in assay [3], the “Mock/Mn^2+ Ratio” value turned out to be 1.01. The “m24 (Expression relative to IgG4)” value is 0.88 relative to IgG4 in assay [4] and 0.83 relative to IgG4 in assay [6]. The results for the “KIM127 (Expression relative to IgG4)” value in assay [5] and in assay [7] were 1.09 relative to IgG4 and 0.81 relative to IgG4, respectively.

B3: anti-Mac-1 antibody clone DF3M-5 (antibody, human IgG4, V domains shown)
VH: EVQLVESGGGLVQPGGSLRLSCAASGFTFGTYDMHWVRQAPGKGLEWVSMISPSGGDTYYADSVKGRFTISRDNSKNTLYLQMNSLRAEDTAVYYCARDSSGDWYAMAYWGQGTLVTVSS
VL: DIQMTQSPSSLSASVGDRVTITCRASQSIRRYLAWYQQKPGKAPKLLIYGASNLQSGVPSRFSGSGSGTDFTLTISSLQPEDFATYYCQHSSDTPLTFGQGTKVEIK
On to B3, for which the binding result with mouse Mac-1 is listed as “binds”. Also, the “Mock MFI” value in assay [1] amounted to 34600 MFI. The “Mn^2+ MFI” value in assay [2] was determined as 52500 MFI. For the same molecule, the “Mock/Mn^2+ Ratio” value in assay [3] turned out to be 0.66. Further, the “m24 (Expression relative to IgG4)” value was 28.4 relative to IgG4 in assay [4] and 4.4 relative to IgG4 in assay [6]. Besides, the figures for the “KIM127 (Expression relative to IgG4)” value in assay [5] and in assay [7] were 2.49 relative to IgG4 and 1.68 relative to IgG4, respectively.
